For assay [1], the target named is T1, Human GUCY2C ECD (his-tagged human GUCY2C protein extracellular domain fusion protein) (human, UniProt P25092 24-430).
T1 construct: also called human GUCY2C-his; human GUCY2C-His
Nature of the assay: ELISA, plate coated with human GUCY2C-his, OD450. The method, then: (§1) A human GUCY2C-his protein was diluted with PBS to a final concentration of 2 μg/mL and then added to a 96-well ELISA plate at 50 μL/well. The plate was sealed with a plastic film and incubated at 4° C. overnight. The next day, the plate was washed 2 times with PBST, and a blocking buffer [PBS+2% (w/w) BSA] was added for blocking at room temperature for 2 h. The blocking buffer was discarded, and the recombinant antibody and positive and negative control antibody with a starting concentration of 100 nM serially diluted by 3 folds were added at 50 μL/well. After incubation at 37° C. for 1 h, the plate was washed 3 times with PBST. A horseradish peroxidase (HRP)—labeled secondary antibody (purchased from Merck, Cat. No. AP113P) was added for incubation at 37° C. for 1 h, and the plate was washed 5 times with PBST. A TMB substrate was added at 50 μL/well for incubation at room temperature for 10 min, and then a stop solution (1.0 M HCl) was added at 50 μL/well. The OD450 nm values were read by an ELISA plate reader (Multimode Plate Reader, EnSight, purchased from Perkin Elmer).

The target in assay [2] is T2, Mouse GUCY2C ECD (his-tagged mouse GUCY2C protein extracellular domain fusion protein) (mouse, UniProt Q3UWA6 20-433).
T2 construct: also called murine GUCY2C-his; murine GUCY2C-His
T2 sequence: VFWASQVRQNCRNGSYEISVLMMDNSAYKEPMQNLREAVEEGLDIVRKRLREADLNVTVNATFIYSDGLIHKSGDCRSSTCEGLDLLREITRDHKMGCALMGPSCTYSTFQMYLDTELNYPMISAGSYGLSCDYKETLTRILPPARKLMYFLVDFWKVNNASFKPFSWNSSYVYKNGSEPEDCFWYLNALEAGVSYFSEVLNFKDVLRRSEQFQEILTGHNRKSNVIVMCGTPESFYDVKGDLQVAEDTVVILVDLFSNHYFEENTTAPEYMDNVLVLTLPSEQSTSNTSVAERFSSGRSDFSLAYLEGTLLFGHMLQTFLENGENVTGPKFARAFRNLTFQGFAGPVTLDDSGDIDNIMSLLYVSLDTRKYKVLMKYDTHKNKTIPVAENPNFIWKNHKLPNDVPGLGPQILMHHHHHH
Nature of the assay: ELISA, plate coated with mouse GUCY2C-his, OD450. The method, then:
as §1
The monkey GUCY2C-his and murine GUCY2C-his proteins were subjected to ELISA and data analysis according to the method described in Example 4.2. The recombinant antibodies Lab306-huFc, Lab322-huFc, and Lab323-huFc have a relatively good binding activity with the monkey GUCY2C-his protein. […]

In assay [3] the target is T3, Cyno GUCY2C ECD (his-tagged cynomolgus monkey GUCY2C protein extracellular domain fusion protein) (cynomolgus monkey, UniProt P25092 24-430 (human entry)).
T3 construct: also called monkey GUCY2C-his; monkey GUCY2C-His
T3 chain: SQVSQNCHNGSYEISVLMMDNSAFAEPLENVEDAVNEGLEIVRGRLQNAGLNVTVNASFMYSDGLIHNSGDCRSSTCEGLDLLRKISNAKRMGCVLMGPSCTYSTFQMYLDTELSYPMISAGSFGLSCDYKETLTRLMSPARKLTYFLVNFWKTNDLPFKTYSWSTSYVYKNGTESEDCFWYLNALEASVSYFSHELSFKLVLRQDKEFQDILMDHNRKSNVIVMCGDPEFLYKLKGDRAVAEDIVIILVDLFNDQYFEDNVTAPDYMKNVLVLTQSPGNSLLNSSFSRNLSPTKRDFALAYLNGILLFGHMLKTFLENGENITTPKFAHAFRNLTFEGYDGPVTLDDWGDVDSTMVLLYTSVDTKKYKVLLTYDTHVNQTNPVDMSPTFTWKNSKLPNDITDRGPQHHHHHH
Kind of assay: BLI Gator, antibody on anti-human Fc probe, antigen in solution. How it is done:
(§2) Next, we measured the affinity of the recombinant antibody by another method, and the specific procedures were as follows: the binding strength of the antibody to the antigen was assayed by acquiring and analyzing the signal change of the reflection interference spectrum on the surface of the optical probe by using thin film interference technology. First, the probe was equilibrated for 300 s with HBS-T+pH 7.4 (0.02% tween) as the mobile phase. 2 μg/mL of the antibody to be tested was captured by an anti-human FC probe (purchased from ProbeLife, PL168-160003) for 240 s, and then antigen proteins with the concentration of 200 nM and diluted two-fold were injected. Kon for 300 s and Koff for 600 s. The association and dissociation processes of the antibody with the antigen protein were recorded, and finally, the chip was regenerated using Glycine pH 2.0 (purchased from GE), wherein the mobile phase was HBS-T+pH 7.4 (0.02% tween), the regeneration time was 5 s, and the assay temperature was 30° C. Finally, according to a 1:1 binding model, the data were analyzed, and the antibody-antigen binding kinetics parameters, including the association rate constant Ka, the dissociation rate constant Kd, the equilibrium dissociation constant KD, and the maximum binding signal Rmax, were fitted. The association rate (Ka), dissociation rate (Kd), and binding affinity (KD) of the recombinant antibodies with the human GUCY2C and monkey GUCY2C proteins are shown in Table 6.

Assay [4] deals with T1, Human GUCY2C ECD (his-tagged human …). The description is as above. The method, then: as §2
Assay [5] has as its target T3, Cyno GUCY2C ECD (his-tagged cynomolgus …). Described as above. The method, then: as §2
(§3) After the finally obtained various humanized antibodies were expressed and purified, the affinities of the humanized antibodies for the human and monkey GUCY2C proteins were separately assayed according to the method in Example 4.6.

The target in assay [6] is T1, Human GUCY2C ECD (his-tagged human …). The description is as above. How it is done: as §2, §3
This is another data set of the same source.

Read-outs that look alike come from different tables or passages of the source.

T1 sequence (P25092 other isoform, or with tags, fused parts or gaps): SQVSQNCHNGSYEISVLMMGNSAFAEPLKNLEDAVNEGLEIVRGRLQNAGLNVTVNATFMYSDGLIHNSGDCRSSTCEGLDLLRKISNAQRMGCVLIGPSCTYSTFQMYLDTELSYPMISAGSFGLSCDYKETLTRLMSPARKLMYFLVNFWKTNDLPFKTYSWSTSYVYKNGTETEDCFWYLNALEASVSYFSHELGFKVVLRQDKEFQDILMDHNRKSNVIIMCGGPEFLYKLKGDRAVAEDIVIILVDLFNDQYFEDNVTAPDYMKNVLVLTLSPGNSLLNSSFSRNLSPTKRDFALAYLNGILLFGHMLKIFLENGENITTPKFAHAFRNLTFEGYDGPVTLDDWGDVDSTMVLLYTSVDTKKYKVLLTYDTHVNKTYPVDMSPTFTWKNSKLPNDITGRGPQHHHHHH

B1: PF1608-hIgG1 (antibody, V domains shown)
VH: EVQLVESGGGLVQPGGSLRLSCAASGFTFSSYWMHWVRQAPGKGLEWIGEIKPSNELTNVHEKFKDRFTISVDKAKNSAYLQMNSLRAEDTAVYYCTRTITTTEGYWFFDVWGQGTLVTVSS
VL: DIQLTQSPSSLSASVGDRVTITCRASESVDYYGSSLLQWYQQKPGKAPKLLIYAASKLASGVPSRFSGSGSGTDFTLTISSLQPEDFATYYCQQTRKAYTFGQGTKLEIKR
notes: also called PF1608-hlgG1; positive control antibody
For the molecule B1, the “EC50 (read off the curve)” value in assay [1] is approximately 0.09 nM; in assay [2], approximately 0.05 nM. Besides, the Kd came out at 0.256 nM in assay [3], 0.494 nM in assay [4], 0.256 nM in assay [5] and 0.494 nM in assay [6]. Further, the koff is 0.000138 s⁻¹ in assay [3], 0.000197 s⁻¹ in assay [4], 0.000138 s⁻¹ in assay [5] and 0.000197 s⁻¹ in assay [6]. Further, the kon in assay [3] is 540000 M⁻¹ s⁻¹; in assay [4] it was 400000 M⁻¹ s⁻¹; in assay [5] it was 540000 M⁻¹ s⁻¹; in assay [6], 400000 M⁻¹ s⁻¹.

B2: 5F9-hIgG1 (antibody, V domains shown)
VH: QVQLQQWGAGLLKPSETLSLTCAVFGGSFSGYYWSWIRQPPGKGLEWIGEINHRGNTNDNPSLKSRVTISVDTSKNQFALKLSSVTAADTAVYYCARERGYTYGNFDHWGQGTLVTVSS
VL: EIVMTQSPATLSVSPGERATLSCRASQSVSRNLAWYQQKPGQAPRLLIYGASTRATGIPARFSGSGSGTEFTLTIGSLQSEDFAVYYCQQYKTWPRTFGQGTNVEIKR
notes: also called positive control antibody
Turning to B2, in assay [1], the “EC50 (read off the curve)” value was approximately 0.05 nM. For the same molecule, the binding result in assay [2] was “no binding (tested: 100 nM)”. The Kd worked out at 0.998 nM in assay [3], 1.14 nM in assay [4], 0.998 nM in assay [5] and 1.14 nM in assay [6]. Also, the koff in assay [3] was 0.000486 s⁻¹; in assay [4], 0.000448 s⁻¹; in assay [5], 0.000486 s⁻¹; in assay [6], 0.000448 s⁻¹. The kon in assay [3] was found to be 487000 M⁻¹ s⁻¹; in assay [4], 391000 M⁻¹ s⁻¹; in assay [5], 487000 M⁻¹ s⁻¹; in assay [6] it was 391000 M⁻¹ s⁻¹.

As a reminder, the EC50 (read off the curve) is the concentration giving half of the maximal effect. One may read the Kd as a measure of binding affinity in units of concentration. The koff is a measure of how fast the partners let go of each other. One may read the kon as a measure of how fast the partners come together.

For the origin of these results see patent publication US20250075006A1 (SHANDONG SIMCERE BIOPHARMACEUTICAL, published 2025).
